From patent US20120058906A1 (published 2012)
One block for each binder: values may come before it.

Columns and labels:
[1] = biological target: T1, rHuman IGF-1 sR (IGF-1 sR), CF (R&D Systems Cat#391-GR) (human, UniProt P08069 31-932); assay: MSD ECL multi-spot plate, antigen immobilized; Fab 1.6 nM; blank spot 565
T1 construct: Purchased soluble receptor; also called insulin-like growth factor-1 soluble receptor; IGF-R1

[2] = biological target: T2, rHuman P-Cadherin/Fc Chimera, CF (R&D Systems Cat#861-PC) (human, UniProt P22223 108-654); assay: as above
T2 construct: Purchased Fc chimera; not shown: Fc portion of the purchased chimera

[3] = biological target: T3, rHuman Erythropoietin R/Fc Chimera, CF (R&D Systems Cat#963-ER) (human, UniProt P19235 25-250); assay: as above
T3 construct: Purchased Fc chimera; also called EPO R/Fc; Epo R; not shown: Fc portion of the purchased chimera
T3 sequence: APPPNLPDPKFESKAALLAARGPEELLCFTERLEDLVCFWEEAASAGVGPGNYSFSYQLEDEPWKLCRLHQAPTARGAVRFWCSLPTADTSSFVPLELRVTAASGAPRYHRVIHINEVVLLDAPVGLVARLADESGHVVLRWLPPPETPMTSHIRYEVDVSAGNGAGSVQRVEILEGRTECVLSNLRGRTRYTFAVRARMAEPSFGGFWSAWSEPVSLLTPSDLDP

[4] = biological target: T4, Recombinant Human DLL4 (R&D Systems Cat#1506-D4/CF) (human, UniProt Q9NR61 27-524); assay: as above
T4 construct: Purchased recombinant protein; also called delta-like protein 4

[5] = biological target: T5, rHuman ErbB2/Fc Chimera, CF (R&D Systems Cat#1129-ER) (human, UniProt P04626 23-652); assay: as above
T5 construct: Purchased Fc chimera; also called HER2/neu; not shown: Fc portion of the purchased chimera

[6] = biological target: T6, rHuman EGF R/Fc Chimera, CF (R&D Systems Cat#344-ER) (human, UniProt P00533 25-645); assay: as above
T6 construct: Purchased Fc chimera; not shown: Fc portion of the purchased chimera

[7] = biological target: T7, rHuman HGF R/c-MET/Fc Chimera, CF (R&D Systems Cat#358-MT/CF) (human, UniProt P08581 25-932); assay: as above
T7 construct: Purchased Fc chimera; also called HGF R/Fc; not shown: Fc portion of the purchased chimera

[8] = biological target: T8, rHuman Notch-1/Fc Chimera, CF (R&D Systems Cat#3647-TK) (human, UniProt P46531 19-526); assay: as above
T8 construct: Purchased Fc chimera; not shown: Fc portion of the purchased chimera

[9] = biological target: T9, rHuman CD44/Fc Chimera, CF (R&D Systems Cat#3660-CD) (human, UniProt P16070 21-220); assay: as above
T9 construct: Purchased Fc chimera; not shown: Fc portion of the purchased chimera

[10] = biological target: T10, rHuman Erythropoietin R/Fc Chimera, CF (R&D Systems Cat#963-ER) (human, UniProt P19235 25-250); assay: ECL (MSD multi-spot), antigen spotted on plate; Fab 1410 nM; blank spot 709
T10 construct: Bought reagent; also called EPO R/Fc; Epo R; Fc part of the bought chimera not given
T10 sequence: T3 sequence

[11] = biological target: T11, Recombinant Human DLL4 (R&D Systems Cat#1506-D4/CF) (human, UniProt Q9NR61 27-524); assay: as above
T11 construct: Bought reagent; also called delta-like protein 4

[12] = biological target: T12, rHuman ErbB2/Fc Chimera, CF (R&D Systems Cat#1129-ER) (human, UniProt P04626 23-652); assay: as above
T12 construct: Bought reagent; also called HER2/neu; human epidermal growth factor 2 receptor; Fc part of the bought chimera not given

[13] = biological target: T13, rHuman EGF R/Fc Chimera, CF (R&D Systems Cat#344-ER) (human, UniProt P00533 25-645); assay: as above
T13 construct: Bought reagent; also called epidermal growth factor receptor; Fc part of the bought chimera not given

[14] = biological target: T14, rHuman HGF R/c-MET/Fc Chimera, CF (R&D Systems Cat#358-MT/CF) (human, UniProt P08581 25-932); assay: as above
T14 construct: Bought reagent; also called HGF R/Fc; hepatocyte growth factor receptor; Fc part of the bought chimera not given

[15] = biological target: T15, rHuman CD44/Fc Chimera, CF (R&D Systems Cat#3660-CD) (human, UniProt P16070 21-220); assay: as above
T15 construct: Bought reagent; Fc part of the bought chimera not given

[16] = biological target: T16, rHuman IGF-1 sR (IGF-1 sR), CF (R&D Systems Cat#391-GR) (human, UniProt P08069 31-932); assay: as above
T16 construct: Bought soluble receptor; also called insulin-like growth factor-1 soluble receptor; IGF-R1

[17] = biological target: T17, rHuman P-Cadherin/Fc Chimera, CF (R&D Systems Cat#861-PC) (human, UniProt P22223 108-654); assay: as above
T17 construct: Bought reagent; also called CDH3; Fc part of the bought chimera not given

[18] = biological target: T18, Recombinant Human DLL4 (R&D Systems Cat#1506-D4/CF) (human, UniProt Q9NR61 27-524); assay: ECL (MSD Multi-Spot) binding assay, antigen spotted on plate; Fab 7.5 nM; blank spot 217
T18 construct: Bought recombinant protein; also called delta-like protein 4; rHuman DLL4
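Also: blank spot per well as comparator with Hit at signal to blank ratio of 4 or more.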

ECL signal [1]: 1440 ECL signal
ECL signal [2]: 811 ECL signal
ECL signal [3]: 899 ECL signal
ECL signal [4]: 2420 ECL signal
ECL signal [5]: 1320 ECL signal
ECL signal [6]: 1180 ECL signal
ECL signal [7]: 1440 ECL signal
ECL signal [8]: 816 ECL signal
ECL signal [9]: 938 ECL signal
B1: Fab VH5-51_IGHD5-18*01>3_IGHJ4*01_G100K & V3-4_IGLJ1*01 (Fab, V domains shown)
VH: EVQLVQSGAEVKKPGESLKISCKGSGYSFTSYWIGWVRQMPGKGLEWMGIIYPGDSDTRYSPSFQGQVTISADKSISTAYLQWSSLKASDTAMYYCARRKYSYGYDYFDYWGQGTLVTVSS
VL: QTVVTQEPSFSVSPGGTVTLTCGLSSGSVSTSYYPSWYQQTPGQAPRTLIYSTNTRSSGVPDRFSGSILGNKAALTITGAQADDESDYYCVLYMGSGISYVFGTGTKVTVL
notes: It was expressed as a Fab: CH1 with tags from Plasmid A and lambda CL from Plasmid E; also called Fab No. 22

ECL signal [10]: 4310
ECL signal [11]: 1260
ECL signal [12]: 932
ECL signal [13]: 1070
ECL signal [14]: 903
ECL signal [15]: 885
ECL signal [16]: 426
ECL signal [17]: 1060
B2: Fab VH1-46_IGHD3-10*01_IGHJ4*01 & B3_IGKJ1*01 (Fab, V domains shown)
VH: QVQLVQSGAEVKKPGASVKVSCKASGYTFTSYYMHWVRQAPGQGLEWMGIINPSGGSTSYAQKFQGRVTMTRDTSTSTVYMELSSLRSEDTAVYYCAREYYYGSGSYYNDYFDYWGQGTLVTVSS
VL: not shown
notes: also called IGHV1-46*01

ECL signal [18]: 598
B3: Fab VH6-1_IGHD3-3*01_IGHJ4*01 & V4-3_IGLJ4*01 (Fab, V domains shown)
VH: QVQLQQSGPGLVKPSQTLSLTCAISGDSVSSNSAAWNWIRQSPSRGLEWLGRTYYRSKWYNDYAVSVKSRITINPDTSKNQFSLQLNSVTPEDTAVYYCAREYYDFWSGYYTDYFDYWGQGTLVTVSS
VL: QPVLTQPTSLSASPGASARLTCTLRSGINLGSYRIFWYQQKPESPPRYLLSYYSDSSKHQGSGVPSRFSGSKDASSNAGILVISGLQSEDEADYYCMIWHSSASFVFGGGTQLIIL
notes: Tested as a Fab made in E. coli; also called IGHV6-1*01
